Series [1] deals with endogenous melanotransferrin. Briefly: RT-PCR after p97 treatment in U-87 cells: endogenous melanotransferrin. It is filed as cell-based, human. The following applies: RT-PCR (FIG. 36). As for the experimental part: FIG. 36. Effect of p97 and RAP treatments in U-87 cells (RT-PCR) on endogenous melanotransferrin. Cells (2×105) were plated onto six-multiwell microplates and grown at 37° C. under 5% CO2 with optimal culture medium supplemented with serum for 4 days. Treatment with p97 and RAP was performed in serum free medium for 72 hours. RNA isolation and RT-PCR were performed as described in the Examples. The amplified PCR products were electrophoresed on a 2% agarose gel and visualized under ultraviolet light. (n=1).
RNA extraction. Cells in six-wells plate or in 75 cm^2 plastic tissue culture flasks were grown at 37° C. under 5% CO2 with optimal culture medium to 80-90% confluence. Total cellular RNA was preserved in Trizol (Gibco BRL, Burlington, ON). The solution are frozen at −80° C. until extraction. The solution was defroze and mixed with 5:1 chloroform for 3 minutes at room temperature. The suspension was centrifugated at 12000 g at 4° C. The clear supernatant was collected then mixed with 1:1 of isopropanol for 15 minutes at room temperature. The mix was centrifugated at 12000×g for 10 min at 4° C. The pellets was washed with 70% ethanol and dried before resuspended in RNase Free H2O.
RT-PCR. RT-PCR was performed for members of the LDL-R family: LRP, LRP1B, megalin, LDL, VLDL, LRP8, LR11, RAP, LR3, cubulin and P97. […]

The subject of another series is mAb L235. Briefly: BIAcore analysis of native and boiled p97 on immobilized mAb L235. It is filed as physicochemical. The following applies: in Ringer/Hepes solution, boiled 5 to 30 min (FIG. 13b). As for the experimental part: FIG. 13 illustrates the transcytosis and accumulation of p97 and transferrin in BBCEC monolayers. FIG. 13a, Transcytosis experiments were performed at 37° C. (solid bars) or 4° C. (white bars). [^125I]-p97 or bovine [^125I]-holo-transferrin (1 mg/ml) was added to the upper side of the cell-covered filter. At the end of the experiment, radiolabelled proteins were measured in the lower chamber of each well by TCA precipitation (n=4). Controls were also performed at 37° C. with denatured [^125I]-p97 or bovine [^125I]-holo-transferrin boiled for 30 min (grey bars) (n=2); FIG. 13b, Biospecific interaction analysis was performed with native or boiled p97 for the indicated times. MAb L235 (5 μg) was immobilized on a sensor chip (SM5) using standard procedures incorporating NHS, EDC and ethanolamine. Native and boiled p97 (5 to 30 min) diluted at 1 mg/ml in Ringer/Hepes was cooled and injected into the BIAcore. The surface plasmon resonance response obtained for native p97 and boiled p97 was plotted (in relative units (RU)) as a function of time; FIG. 13c, The accumulation of both proteins into BBEC cells were also measured. Briefly, after incubation at 37° C. (solid bars) or 4° C. […] Accumulation of both denatured proteins (grey bars) was also measured at 37° C. Filters were then removed, and the radioactivity associated with the cells was quantified (n=3). […]

B1: p97: recombinant human melanotransferrin (p97), provided by Synapse Technologies (protein, UniProt P08582 20-709, looked up)
Melanotransferrin: GMEVRWCATSDPEQHKCGNMSEAFREAGIQPSLLCVRGTSADHCVQLIAAQEADAITLDGGAIYEAGKEHGLKPVVGEVYDQEVGTSYYAVAVVRRSSHVTIDTLKGVKSCHTGINRTVGWNVPVGYLVESGRLSVMGCDVLKAVSDYFGGSCVPGAGETSYSESLCRLCRGDSSGEGVCDKSPLERYYDYSGAFRCLAEGAGDVAFVKHSTVLENTDGKTLPSWGQALLSQDFELLCRDGSRADVTEWRQCHLARVPAHAVVVRADTDGGLIFRLLNEGQRLFSHEGSSFQMFSSEAYGQKDLLFKDSTSELVPIATQTYEAWLGHEYLHAMKGLLCDPNRLPPYLRWCVLSTPEIQKCGDMAVAFRRQRLKPEIQCVSAKSPQHCMERIQAEQVDAVTLSGEDIYTAGKTYGLVPAAGEHYAPEDSSNSYYVVAVVRRDSSHAFTLDELRGKRSCHAGFGSPAGWDVPVGALIQRGFIRPKDCDVLTAVSEFFNASCVPVNNPKNYPSSLCALCVGDEQGRNKCVGNSQERYYGYRGAFRCLVENAGDVAFVRHTTVFDNTNGHNSEPWAAELRSEDYELLCPNGARAEVSQFAACNLAQIPPHAVMVRPDTNIFTVYGLLDKAQDLFGDDHNKNGFKMFDSSNYHGQDLLFKDATVRAVPVGEKTTYRGWLGLDYVAALEGMSSQQC
Turning to B1, the “Expression of endogenous p97” value in series [1] is “appears to induce its own expression”. In the series on mAb L235, the “Resistance to heat denaturation” value is given as “resistant to heat denaturation”.

The values are drawn from patent publication US7977317B2, “Compositions and methods for modulating blood-brain barrier transport” (Raptor Pharmaceutical Inc., priority 2001, dated 2011).
